One molecule from patent publication US10456465B2, “Compositions, kits, and methods for the diagnosis prognosis, monitoring, treatment and modulation of post-transplant lymphoproliferative disorders and hypoxia associated angiogenesis disorders using galectin-1” (Dana-Farber Cancer Institute, Inc., priority 2009, dated 2019) can be followed below.

Entries after “also recorded” stand apart in the source; their conditions may differ.

The subject of test [1] is B16 tumors. Description: Adoptive transfer of CFSE-labeled T cells or fluorescent beads into B16 tumor-bearing mice. The format is in vivo, mouse. The procedure: (§1) Wild-type KS cells or shRNA clones (5×10^6 cells) were injected subcutaneously into 6- to 8-week old nude mice. Wild-type B16 cells or shRNA clones (2×10^5 cells) were injected into 6- to 8-week old B6 or B6/Rag^−/− mice and tumor development was monitored as described in Rubinstein et al. (2004) Cancer Cell 5, 241-251. Treatments with 8F4F8G7 mAb or control isotype (2.5, 7.5 or 15 mg/kg; i.p. injections every three days) were initiated when tumors reached 100 mm^3. Mice were sacrificed when tumors reached a volume greater than 2 cm^3. At 2 weeks after tumor challenge, lymph node cells (5×10^5 cells/well) were restimulated for 72 h with 1×10^4 irradiated (4,000 rads) B16 cells and were analyzed for proliferation and cytokine production. For adoptive transfer, splenic T cells (5×10^6) from tumor-bearing mice were labeled with CFSE (Molecular Probes) and injected through the tail vein into tumor-bearing recipient mice treated with 8F4F8G7 or control mAb. In related studies, fluorescent beads (3 μm; BD Biosciences), rather than splenic T cells, were injected into tumor-bearing animals treated with 8F4F8G7 or control antibody. CFSE^+ cells or PerCP-labeled beads were analyzed after 24 h or 15 min respectively by flow cytometry in tumor parenchyma and spleen.

The target of test [2] is rGal1 (Homo sapiens, UniProt P09382). The test is described as follows: Anti-Gal1 mAb neutralization of rGal1-induced killing of EBV-specific CTLs. The format is cell-based. To be noted: rGal1 1.25, 2.5 or 5 μM pre-incubated with mAb; 4 h; 7AAD. The procedure: After informed consent, 40-60 ml of peripheral blood from healthy donors was used to generate both EBV-transformed LCLs and EBV-specific CTLs (Straathof et al. (2005) Blood 105:1898-904). In brief, 5×10^6 peripheral blood mononuclear cells (PBMCs) were incubated with concentrated culture supernatant from the marmoset B-lymphoblastoid cell line, B95-8, in the presence of 1 μg/ml cyclosporin A (Sandoz, Vienna, Austria) to establish a LCL. Subsequently, PBMCs (2×10^6 per well of a 24-well plate) were stimulated with irradiated LCLs (at 4,000 rads) at an effector-stimulator (E/S) ratio of 40:1. After 10 days, viable cells were restimulated with irradiated LCLs (at 4:1 E/S ratio). CTLs were expanded by weekly stimulations with autologous irradiated LCLs (at 4:1 E/S ratio) in the presence of recombinant human interleukin-2 (rhIL-2, Proleukin; Chiron Emeryville, Calif.) at concentration of 40 U/ml. After 5 cycles of stimulation, CTLs were tested for EBV specificity and cryopreserved. […]
Chain of rGal1 (P09382 whole entry): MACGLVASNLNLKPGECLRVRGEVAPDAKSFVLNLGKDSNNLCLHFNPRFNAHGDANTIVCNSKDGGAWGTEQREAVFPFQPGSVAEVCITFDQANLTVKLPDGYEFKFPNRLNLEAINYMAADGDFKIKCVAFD
CTLs were thawed in AIM-V media (Invitrogen) containing 10 U/ml of DNAse I (Roche Applied Science, Indianapolis, Ind.) and rested in culture overnight. […] After 4 hours, the viability of EBV-specific CD8^+ T cells was measured using 7AAD and APC-Cy7-labelled CD8 (BD Biosciences, San Jose, Calif.).

For test [3], the system named is B16 tumors. The test is described as follows: Anti-tumor immune response in B16 tumor-bearing mice (TDLN restimulation, FACS). The format is in vivo, mouse. The procedure: as §1
For intracellular cytokine staining, TLDN or tumor-infiltrating lymphocytes were made permeable with Perm2 solution (BD Biosciences) and were labeled with fluorescent-labeled monoclonal anti-IFN-γ (XMG1.2; BD Biosciences), anti-IL-17 (TC11-18H10; BD Biosciences), anti-IL-10 (JESS-16E3; eBioscience), anti-CD4 (GK1.5; BD Biosciences), anti-CD8 (H35-17.2; eBioscience) antibodies. Treg cells were determined by using the mouse Treg staining kit (FJK-16s, eBioscience). Cells were analyzed on a FACSAria (BD Biosciences) using a FlowJO software.
Mouse IFN-γ and IL-10 ELISA sets were from BD Biosciences and mouse IL-17 kit was from R&D. Human soluble VEGF was assessed by ELISA (DY293B; R&D). Soluble Gal1 was determined using an in-house ELISA. Briefly, high binding 96-well microplates (Corning Costar) were coated with capture antibody (2 μg/ml purified rabbit anti-Gal1 polyclonal IgG) in 0.1 M sodium carbonate pH 9.5. After incubation for 18 hours at 4° C., wells were rinsed three times with wash buffer (0.05% Tween-20 in PBS) and incubated for 1 h at RT with blocking solution (2% BSA in PBS). Samples and standards (100 μl) were diluted in 1% BSA and incubated for 18 hours at 4° C. Plates were then washed and incubated with 100 ng/ml biotinylated detection antibody (purified rabbit anti-Gal1 polyclonal IgG) for 1 hour at RT. Plates were rinsed three times before adding horseradish peroxidase-labeled streptavidin (0.33 μg/ml; Sigma) for 30 min at RT. After washing, 100 μl of TMB solution (0.1 mg/ml tetramethylbenzidine and 0.06% H2O2 in citrate-phosphate buffer pH 5) was added to the plates. The reaction was stopped by adding 4N H2SO4. Optical densities were determined at 450 nm in a Multiskan MS microplate reader (Thermo Electron Corporation). A standard curve ranging from 2.5 to 160 ng/ml recombinant Gal1 was run in parallel.

The target of test [4] is T1, recombinant His-Gal1 (human, UniProt P09382 1-135, limits assumed).
T1 construct: not shown: His tag
T1 sequence (P09382 whole entry): as above
Description: ELISA on recombinant protein. The source says:
(§2) Anti-human Gal1 mAbs were obtained by immunizing B6-Cg-Tg (BCL2)22Wehi-J mice (Jackson Labs, Bar Harbor, Me.) with recombinant human glutathione-s-transferase (GST)-Gal1, generating anti-Gal1 hybridomas with standard methods and purifying the Gal1 monoclonal antibody and class-matched IgG2bλ, control by affinity chromatography. […] A previously described anti-Gal1 polyclonal antibody (Juszczynski et al. (2007) *Proc Natl Acad Sci USA* 104:13134-9) was used as a positive control in all assays.
In general terms: ELISA stands for enzyme-linked immunosorbent assay.

Test [5] has as its target T2, recombinant human glutathione-s-transferase (GST)-Gal1 (human, UniProt P09382 1-135).
T2 construct: Immunogen and ELISA antigen; not shown: glutathione-S-transferase (GST) tag
The test is described as follows: ELISA on recombinant protein.
Excerpt: as §2

[6] abbreviates: restimulated ex vivo with B16 cells.

T2 sequence (P09382 whole entry): as above

B1: anti-Gal1 monoclonal antibody 8F4F8G7 (antibody, V domains shown)
VH: EVQLQQSVAEFVRPGASVRLSCTASGFNIKNTYIHWVRQRPEQGLEWIGKIDPANGNTKYVPEFQGKATMTADTSSNTVYLHLSSLTSEDTAIYYCVDGYYGWYFAVWGTGTTVTVSS
VL: QAVVTQESALTTSPGETVTLTCRSSTGAVTTSNYANWVQEKPDHLFTGLIGATNNRAPGVPARFSGSLIGDKAVLTITGAQTEDEAIYFCALWYRNHFIFGSGTKVTVL
notes: Murine hybridoma mAb (deposit PTA-10535), lambda light chain; also called 14-19 8F4-F8-G7; clone 8F4.8F.67
Take B1: the “T cells reaching tumor parenchyma (increase)” value in test [1] (CFSE-labeled T cells, vs control isotype) was 3 fold. In addition, the “number of CFSE+ T cells in spleens” value in test [1] (recipient mice) is on record as “no differences”. Also, in test [1] (vs isotype-treated mice, 15 min), the “access of fluorescently-labeled beads to the tumor parenchyma” value is reported as “increased access”. The “rGal1-mediated apoptosis of EBV-specific CD8+ T cells” value in test [2] is on record as “almost completely abrogated; also recorded: dramatically reduced”. Also, the “B16-specific IL-10 production” value in test [3] (mouse, in vivo) was “blunted”. Further, in test [3] (setting [6]), the “proliferation of tumor-draining lymph node cells” value is listed as “stimulated”; the “synthesis and secretion of IFN-γ by tumor-draining lymph node cells” value is “stimulated”; the “synthesis and secretion of IL-17 by tumor-draining lymph node cells” value was “stimulated”. Moreover, in test [3] (vs isotype control), the “frequency of CD4+CD25+FoxP3+ Treg cells in TDLN” value is listed as “decline”. Further, the “number of tumor-infiltrating IFN-γ-producing CD8+ T cells” value in test [3] (vs isotype-treated mice) is “dramatic increase”. Further, the binding result in test [4] is listed as “binds”. In addition, in test [5], the binding result was “binds”.
